The values that follow come from publication PMC8327961, “Nse5/6 inhibits the Smc5/6 ATPase and modulates DNA substrate binding” (The EMBO Journal, 2021).

Holding throughout (assay): cross-linking; BMOE (1 mM, 45 s) on hexamers with reporter cysteines, 0.5 µM in ATPase buffer; without or with Nse5/6 (0.625 µM), 2 mM ATP, plasmid DNA or 40 bp DNA; SDS-PAGE, Coomassie
What all share (details): both partners purified

In one test the target is T1, Smc6-3C-Twin-Strep (S. cerevisiae, UniProt Q12749 1-1114).
T1 construct: Smc6, S. cerevisiae; stood in the assays as a subunit of the hexamer or octamer; also called Smc6-Twin-Strep; Smc6-3C-TS; source: E. coli (DE3) Rosetta, co-expressed with the other subunits of the hexamer, purified as part of the complex; not shown: Twin-Strep (after a 3C site), C-terminal, kept
T1 sequence (looked up): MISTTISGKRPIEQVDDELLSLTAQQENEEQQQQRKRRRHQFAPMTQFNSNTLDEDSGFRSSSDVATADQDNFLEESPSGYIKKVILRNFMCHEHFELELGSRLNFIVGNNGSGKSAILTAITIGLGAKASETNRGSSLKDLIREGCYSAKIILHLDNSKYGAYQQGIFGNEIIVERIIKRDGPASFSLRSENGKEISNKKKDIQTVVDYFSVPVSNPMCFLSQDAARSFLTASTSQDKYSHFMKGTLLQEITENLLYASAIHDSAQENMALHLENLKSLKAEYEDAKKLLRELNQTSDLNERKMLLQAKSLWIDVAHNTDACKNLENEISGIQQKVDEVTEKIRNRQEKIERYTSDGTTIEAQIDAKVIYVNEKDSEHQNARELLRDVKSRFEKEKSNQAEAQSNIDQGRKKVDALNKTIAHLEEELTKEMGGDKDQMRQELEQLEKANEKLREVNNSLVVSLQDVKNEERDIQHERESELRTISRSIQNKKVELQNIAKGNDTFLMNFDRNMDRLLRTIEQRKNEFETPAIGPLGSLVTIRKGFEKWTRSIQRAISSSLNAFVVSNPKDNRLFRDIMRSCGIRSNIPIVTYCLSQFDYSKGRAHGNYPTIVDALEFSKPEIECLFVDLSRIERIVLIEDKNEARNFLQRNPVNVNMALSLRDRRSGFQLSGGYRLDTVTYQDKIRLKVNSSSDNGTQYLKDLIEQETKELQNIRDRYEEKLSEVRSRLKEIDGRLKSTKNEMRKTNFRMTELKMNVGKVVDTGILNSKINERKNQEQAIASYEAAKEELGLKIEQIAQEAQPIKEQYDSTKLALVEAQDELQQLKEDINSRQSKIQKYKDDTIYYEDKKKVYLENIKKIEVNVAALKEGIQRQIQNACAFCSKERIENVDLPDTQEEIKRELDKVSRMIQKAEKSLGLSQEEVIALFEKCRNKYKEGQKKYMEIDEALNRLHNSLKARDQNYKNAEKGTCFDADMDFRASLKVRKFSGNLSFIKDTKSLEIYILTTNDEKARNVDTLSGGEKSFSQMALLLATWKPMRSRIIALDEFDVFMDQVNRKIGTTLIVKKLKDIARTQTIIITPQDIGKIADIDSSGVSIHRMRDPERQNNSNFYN

The target in the next test is T2, Smc6(N572C) (S. cerevisiae, UniProt Q12749 1-1114, N572C).
T2 construct: Smc6, S. cerevisiae; subunit of the Hinge-Cys (north) hexamer; also called Hinge-Cys north, Smc6; source: E. coli (DE3) Rosetta, purified as part of the hexamer
T2 sequence (looked up): T1 sequence (looked up) with N572C

The target in a further test is T3, Smc6(N643C) (S. cerevisiae, UniProt Q12749 1-1114, N643C).
T3 construct: Smc6, S. cerevisiae; subunit of the Hinge-Cys (south) hexamer; also called Hinge-Cys south, Smc6; source: E. coli (DE3) Rosetta, purified as part of the hexamer
T3 sequence (looked up): T1 sequence (looked up) with N643C

Positions count from the first letter of the chain named. Names and notes keep the numbering of the source.

B1: Smc5(N975C) (natural protein, S. cerevisiae, UniProt Q08204 1-1093, looked up)
chain: MTSLIDLGRYVERTHHGEDTEPRSKRVKIAKPDLSSFQPGSIIKIRLQDFVTYTLTEFNLSPSLNMIIGPNGSGKSTFVCAVCLGLAGKPEYIGRSKKVEDFIKNGQDVSKIEITLKNSPNVTDIEYIDARDETIKITRIITRSKRRSDYLINDYQVSESVVKTLVAQLNIQLDNLCQFLSQERVEEFARLKSVKLLVETIRSIDASLLDVLDELRELQGNEQSLQKDLDFKKAKIVHLRQESDKLRKSVESLRDFQNKKGEIELHSQLLPYVKVKDHKEKLNIYKEEYERAKANLRAILKDKKPFANTKKTLENQVEELTEKCSLKTDEFLKAKEKINEIFEKLNTIRDEVIKKKNQNEYYRGRTKKLQATIISTKEDFLRSQEILAQTHLPEKSVFEDIDIKRKEIINKEGEIRDLISEIDAKANAINHEMRSIQRQAESKTKSLTTTDKIGILNQDQDLKEVRDAVLMVREHPEMKDKILEPPIMTVSAINAQFAAYLAQCVDYNTSKALTVVDSDSYKLFANPILDKFKVNLRELSSADTTPPVPAETVRDLGFEGYLSDFITGDKRVMKMLCQTSKIHTIPVSRRELTPAQIKKLITPRPNGKILFKRIIHGNRLVDIKQSAYGSKQVFPTDVSIKQTNFYQGSIMSNEQKIRIENEIINLKNEYNDRKSTLDALSNQKSGYRHELSELASKNDDINREAHQLNEIRKKYTMRKSTIETLREKLDQLKREARKDVSQKIKDIDDQIQQLLLKQRHLLSKMASSMKSLKNCQKELISTQILQFEAQNMDVSMNDVIGFFNEREADLKSQYEDKKKFVKEMRDTPEFQSWMREIRSYDQDTKEKLNKVAEKYEEEGNFNLSFVQDVLDKLESEIAMVNHDESAVTILDQVTAELRELEHTVPQQSKDLETIKAKLKEDHAVLEPKLDDIVSKISARFARLFNNVGSAGAVRLEKPKDYAEWKIEIMVKFRDCAPLKKLDSHTQSGGERAVSTVLYMIALQEFTSAPFRVVDEINQGMDSRNERIVHKAMVENACAENTSQYFLITPKLLTGLHYHEKMRIHCVMAGSWIPNPSEDPKMIHFGETSNYSFD
notes: Smc5, S. cerevisiae; pairs with the natural cysteines C92 and C147 of Smc6; also called E-Cys, Smc5; source: E. coli (DE3) Rosetta, purified as part of the hexamer
In the case of B1, in the test with Smc6-3C-Twin-Strep, the binding result is given as “binds”.

B2: Smc5(V638C) (natural protein, S. cerevisiae, UniProt Q08204 1-1093, looked up)
chain: B1 chain with V638C, C975N
notes: Smc5, S. cerevisiae; subunit of the Hinge-Cys (north) hexamer; also called Hinge-Cys north, Smc5; source: E. coli (DE3) Rosetta, purified as part of the hexamer
For B2, in the test with Smc6(N572C), the binding result is listed as “binds”.

B3: Smc5(N526C) (natural protein, S. cerevisiae, UniProt Q08204 1-1093, looked up)
chain: B1 chain with N526C, C975N
notes: Smc5, S. cerevisiae; subunit of the Hinge-Cys (south) hexamer; also called Hinge-Cys south, Smc5; source: E. coli (DE3) Rosetta, purified as part of the hexamer
Take B3: in the test with Smc6(N643C), the binding result is reported as “binds”.
